In patent publication US20240010753A1 (EPIMAB BIOTHERAPEUTICS HK, published 2024):

Assays:
[1] = molecular target: T1, recombinant human ROR1-ECD protein (human, UniProt Q01973 30-406); test: BLI (Octet RED96), antibody captured on anti-mouse IgG Fc sensors, ROR1-ECD in solution, 25 C, 1:1 fit
T1 construct: also called human ROR1 extracellular domain
Procedure: Briefly, Anti-Mouse IgG Fc Capture (AMC) Biosensors were used to capture purified anti-ROR1 antibodies. Sensors were then dipped into solutions containing recombinant human ROR1-ECD protein to detect target protein binding to the captured antibodies. Kinetics constants were determined by processing and fitting data to a 1:1 binding model using Fortebio analysis software. Shown below in Table 2 are the results obtained for ROR1-mAb004 in comparison with two previously described anti-ROR1 monoclonal antibodies, ROR1-Tab1 is clone R12 as described in WO2014167022, and ROR1-Tab2 is clone D10 as described in WO2012097313.

[2] = molecular target: T1, recombinant human ROR1-ECD protein; test: competition ELISA: biotinylated ROR1-ECD pre-mixed with the row's antibody; competitor coated on the plate: ROR1-Tab2
Procedure: (§1) The binding epitope of ROR1 antibodies were identified with a competition ELISA. Briefly, 96 well plates were coated with 1 ug/mL purified antibodies and incubated overnight at 4° C. After washing with PBS containing 0.05% Tween 20, plates were blocked with blocking buffer (PBS containing 0.05% Tween 20 and 2% BSA) at 37° C. for 2 hours. Biotinylated human ROR1-ECD protein pre-mixed with ROR1 antibody (sample) or irrelevant mouse IgG (baseline) was added into plate wells and incubated at 37° C. for 1 hour before being washed 3 times. Streptavidin-HRP (1:5000 dilution) was then added into each well and incubated at 37° C. for 1 hour before being washed another 3 times. Tetramethylbenzidine (TMB) chromogenic solution was added for color development for 5 minutes then the reaction was stopped with 1M HCl. Absorbance at 450 nm (OD₄₅₀) was measured on a microplate reader. The OD450baseline represents the level of human ROR1-ECD binding to ROR1 antibodies at absence of competition, while the difference between OD450baseline and OD450ₛₐₘₚₗₑ reflects the competition between the ROR1 antibody coated on plate and the antibody in solution. The inhibition percentage was calculated by following equation: […]

[3] = molecular target: T1, recombinant human ROR1-ECD protein; test: competition ELISA: biotinylated ROR1-ECD pre-mixed with the row's antibody; competitor coated on the plate: ROR1-mAb004
Procedure: as §1

[4] = molecular target: T1, recombinant human ROR1-ECD protein; test: competition ELISA: biotinylated ROR1-ECD pre-mixed with the row's antibody; competitor coated on the plate: ROR1-Tab1
Procedure: as §1

[5] = molecular target: T1, recombinant human ROR1-ECD protein; test: BLI (Octet RED96), FIT-Ig captured on anti-hIgG Fc sensors, ROR1 ECD at 10 ug/ml; off-rate relative to FIT1007-12B
Procedure: The ROR1/CD3 FIT-Ig proteins were assayed for and ranked by dissociation rate constant (koff, “off-rate”) using an Octet®RED96 biolayer interferometry (Pall FortéBio LLC). Anti-hIgG Fc Capture (AHC) Biosensors (Pall) were first exposed to antibody at a concentration of 100 nM for 30 seconds to capture antibody, then dipped into running buffer (1× pH 7.2 PBS, 0.05% Tween 20, 0.1% BSA) for 60 seconds to check baseline. Sensors with captured antibody were dipped into recombinant human ROR1 ECD protein at 10 ug/ml for 5 minutes to measure association, followed by dipped into running buffer for 1200 seconds to measure dissociation. The association and dissociation curves were fitted to a 1:1 Langmuir binding model using ForteBio Data Analysis software (Pall). The off-rate ratios were calculated by the off-rate of antibody to that of FIT1007-12B. Lower ratio indicates slower dissociation of the antibody in comparison with the parental chimeric antibody FIT1007-12B.

T1 sequence (Q01973 30-406): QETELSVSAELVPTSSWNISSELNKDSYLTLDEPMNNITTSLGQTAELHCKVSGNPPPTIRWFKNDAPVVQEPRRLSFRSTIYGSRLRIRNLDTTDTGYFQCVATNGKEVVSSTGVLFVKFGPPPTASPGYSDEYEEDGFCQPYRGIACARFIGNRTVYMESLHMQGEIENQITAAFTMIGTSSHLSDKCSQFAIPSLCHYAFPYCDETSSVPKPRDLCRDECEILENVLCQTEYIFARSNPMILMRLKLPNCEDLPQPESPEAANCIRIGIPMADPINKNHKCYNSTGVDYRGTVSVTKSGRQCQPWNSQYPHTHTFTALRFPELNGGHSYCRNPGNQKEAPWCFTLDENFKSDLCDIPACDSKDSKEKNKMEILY

Off-rate Ratio [5] | Binder | other results
11.9% | FIT1007-12B-3 (bispecific antibody, human IgG1, kappa, L234A L235A, ROR1xCD3 FIT-Ig, same build as FIT1007-12B-1, no linkers) chain 1: not shown chain 2: EVQLVQSGAEVKKPGSSVKVSCKASGYTFSRSWMNWVKQAPGQGLEWIGRIYPGNGDIKYNGNFKGKATITADKSTSTAYMELSSLRSEDTAVYYCAHIYYDFYYALDYWGQGTTVTVSSASTKGPSVFPLAPSSKSTSGGTAALGCLVKDYFPEPVTVSWNSGALTSGVHTFPAVLQSSGLYSLSSVVTVPSSSLGTQTYICNVNHKPSNTKVDKKVEPKSC chain 3: not shown | 
25.2% | FIT1007-12B-12 (bispecific antibody, human IgG1, kappa, L234A L235A, ROR1xCD3 FIT-Ig, same build as FIT1007-12B-1, no linkers) chain 1: not shown chain 2: EVQLVQSGAEVKKPGSSVKVSCKASGYTFSRSWMNWVKQAPGQGLEWIGRIYPGNGDIKYNGNFKGKATITADKSTSTAYMELSSLRSEDTAVYYCAHIYYDFYYALDYWGQGTTVTVSSASTKGPSVFPLAPSSKSTSGGTAALGCLVKDYFPEPVTVSWNSGALTSGVHTFPAVLQSSGLYSLSSVVTVPSSSLGTQTYICNVNHKPSNTKVDKKVEPKSC chain 3: not shown | 
13.6% | FIT1007-12B-7 (bispecific antibody, human IgG1, kappa, L234A L235A, ROR1xCD3 FIT-Ig, same build as FIT1007-12B-1, no linkers) chain 1: not shown chain 2: EVQLVQSGAEVKKPGSSVKVSCKASGYTFSRSWMNWVRQAPGQGLEWMGRIYPGNGDIKYNGNFKGRVTITADKSTSTAYMELSSLRSEDTAVYYCAHIYYDFYYALDYWGQGTTVTVSSASTKGPSVFPLAPSSKSTSGGTAALGCLVKDYFPEPVTVSWNSGALTSGVHTFPAVLQSSGLYSLSSVVTVPSSSLGTQTYICNVNHKPSNTKVDKKVEPKSC chain 3: not shown | 
15.4% | FIT1007-12B-8 (bispecific antibody, human IgG1, kappa, L234A L235A, ROR1xCD3 FIT-Ig, same build as FIT1007-12B-1, no linkers) chain 1: not shown chain 2: EVQLVQSGAEVKKPGSSVKVSCKASGYTFSRSWMNWVRQAPGQGLEWIGRIYPGNGDIKYNGNFKGRATITADKSTSTAYMELSSLRSEDTAVYYCAHIYYDFYYALDYWGQGTTVTVSSASTKGPSVFPLAPSSKSTSGGTAALGCLVKDYFPEPVTVSWNSGALTSGVHTFPAVLQSSGLYSLSSVVTVPSSSLGTQTYICNVNHKPSNTKVDKKVEPKSC chain 3: not shown | 

Second part, the binder before the results:

Binder | Off-rate Ratio [5] | other results
ROR1-Tab2 (antibody, V domains shown, also called clone D10; D10 as described in WO2012097313) VH: QVQLKESGPGLVAPSQTLSITCTVSGFSLTSYGVHWVRQPPGKGLEWLGVIWAGGFTNYNSALKSRLSISKDNSKSQVLLKMTSLQTDDTAMYYCARRGSSYSMDYWGQGTSVTVSS VL: EIVLSQSPAITAASLGQKVTITCSASSNVSYIHWYQQRSGTSPRPWIYEISKLASGVPVRFSGSGSGTSYSLTISSMEAEDAAIYYCQQWNYPLITFGSGTKLEIQ |  | Kd [1]: 98.8 nM; koff [1]: 0.0321 s⁻¹; kon [1]: 325000 M⁻¹ s⁻¹; Inhibition % [2]: 92%; Inhibition % [3]: 56%; Inhibition % [4]: -21%
FIT1007-12B-13 (bispecific antibody, human IgG1, kappa, L234A L235A, Chimeric ROR1 arm with CDR-H2 point mutations (AA); ROR1xCD3 FIT-Ig, no linkers) chain 1: not shown chain 2: QVQLQQSGPELVKPGASVKISCKASGYAFSRSWMNWVKQRPEKGLEWIGRIYPGNADIKYNANFKGKATLTADKSSSTAYMQLSSLTSEDSAVYFCAHIYYDFYYALDYWGQGTSVTVSSASTKGPSVFPLAPSSKSTSGGTAALGCLVKDYFPEPVTVSWNSGALTSGVHTFPAVLQSSGLYSLSSVVTVPSSSLGTQTYICNVNHKPSNTKVDKKVEPKSC chain 3: not shown | 89.1% | 
FIT1007-12B-16 (bispecific antibody, human IgG1, kappa, L234A L235A, Chimeric ROR1 arm with CDR-H2 point mutations (QA); ROR1xCD3 FIT-Ig, no linkers) chain 1: not shown chain 2: QVQLQQSGPELVKPGASVKISCKASGYAFSRSWMNWVKQRPEKGLEWIGRIYPGQGDIKYNANFKGKATLTADKSSSTAYMQLSSLTSEDSAVYFCAHIYYDFYYALDYWGQGTSVTVSSASTKGPSVFPLAPSSKSTSGGTAALGCLVKDYFPEPVTVSWNSGALTSGVHTFPAVLQSSGLYSLSSVVTVPSSSLGTQTYICNVNHKPSNTKVDKKVEPKSC chain 3: not shown | 139% | 
FIT1007-12B-5 (bispecific antibody, human IgG1, kappa, L234A L235A, ROR1xCD3 FIT-Ig, same build as FIT1007-12B-1, no linkers) chain 1: not shown chain 2: EVQLVQSGAEVKKPGSSVKVSCKASGYTFSRSWMNWVRQAPGQGLEWIGRIYPGNGDIKYNGNFKGRATITADKSTSTAYMELSSLRSEDTAVYYCAHIYYDFYYALDYWGQGTTVTVSSASTKGPSVFPLAPSSKSTSGGTAALGCLVKDYFPEPVTVSWNSGALTSGVHTFPAVLQSSGLYSLSSVVTVPSSSLGTQTYICNVNHKPSNTKVDKKVEPKSC chain 3: not shown | 28.5% | 
FIT1007-12B-1 (bispecific antibody, human IgG1, kappa, L234A L235A, ROR1xCD3 FIT-Ig, chain #1 VL(ROR1)-CL-VH(CD3)-CH1-hinge-CH2-CH3, chain #2 VH(ROR1)-CH1, chain #3 VL(CD3)-CL, no linkers) chain 1: not shown chain 2: EVQLVQSGAEVKKPGSSVKVSCKASGYTFSRSWMNWVRQAPGQGLEWMGRIYPGNGDIKYNGNFKGRVTITADKSTSTAYMELSSLRSEDTAVYYCAHIYYDFYYALDYWGQGTTVTVSSASTKGPSVFPLAPSSKSTSGGTAALGCLVKDYFPEPVTVSWNSGALTSGVHTFPAVLQSSGLYSLSSVVTVPSSSLGTQTYICNVNHKPSNTKVDKKVEPKSC chain 3: not shown | 5.25% | 
FIT1007-12B-10 (bispecific antibody, human IgG1, kappa, L234A L235A, ROR1xCD3 FIT-Ig, same build as FIT1007-12B-1, no linkers) chain 1: not shown chain 2: EVQLVQSGAEVKKPGSSVKVSCKASGYTFSRSWMNWVRQAPGQGLEWMGRIYPGNGDIKYNGNFKGRVTITADKSTSTAYMELSSLRSEDTAVYYCAHIYYDFYYALDYWGQGTTVTVSSASTKGPSVFPLAPSSKSTSGGTAALGCLVKDYFPEPVTVSWNSGALTSGVHTFPAVLQSSGLYSLSSVVTVPSSSLGTQTYICNVNHKPSNTKVDKKVEPKSC chain 3: not shown | 36.7% | 
FIT1007-12B-11 (bispecific antibody, human IgG1, kappa, L234A L235A, ROR1xCD3 FIT-Ig, same build as FIT1007-12B-1, no linkers) chain 1: not shown chain 2: EVQLVQSGAEVKKPGSSVKVSCKASGYTFSRSWMNWVRQAPGQGLEWIGRIYPGNGDIKYNGNFKGRATITADKSTSTAYMELSSLRSEDTAVYYCAHIYYDFYYALDYWGQGTTVTVSSASTKGPSVFPLAPSSKSTSGGTAALGCLVKDYFPEPVTVSWNSGALTSGVHTFPAVLQSSGLYSLSSVVTVPSSSLGTQTYICNVNHKPSNTKVDKKVEPKSC chain 3: not shown | 28.9% | 
FIT1007-12B-9 (bispecific antibody, human IgG1, kappa, L234A L235A, ROR1xCD3 FIT-Ig, same build as FIT1007-12B-1, no linkers) chain 1: not shown chain 2: EVQLVQSGAEVKKPGSSVKVSCKASGYTFSRSWMNWVKQAPGQGLEWIGRIYPGNGDIKYNGNFKGKATITADKSTSTAYMELSSLRSEDTAVYYCAHIYYDFYYALDYWGQGTTVTVSSASTKGPSVFPLAPSSKSTSGGTAALGCLVKDYFPEPVTVSWNSGALTSGVHTFPAVLQSSGLYSLSSVVTVPSSSLGTQTYICNVNHKPSNTKVDKKVEPKSC chain 3: not shown | 12% | 
FIT1007-12B-4 (bispecific antibody, human IgG1, kappa, L234A L235A, ROR1xCD3 FIT-Ig, same build as FIT1007-12B-1, no linkers) chain 1: not shown chain 2: EVQLVQSGAEVKKPGSSVKVSCKASGYTFSRSWMNWVRQAPGQGLEWMGRIYPGNGDIKYNGNFKGRVTITADKSTSTAYMELSSLRSEDTAVYYCAHIYYDFYYALDYWGQGTTVTVSSASTKGPSVFPLAPSSKSTSGGTAALGCLVKDYFPEPVTVSWNSGALTSGVHTFPAVLQSSGLYSLSSVVTVPSSSLGTQTYICNVNHKPSNTKVDKKVEPKSC chain 3: not shown | 35.9% | 
FIT1007-12B-6 (bispecific antibody, human IgG1, kappa, L234A L235A, ROR1xCD3 FIT-Ig, same build as FIT1007-12B-1, no linkers) chain 1: not shown chain 2: EVQLVQSGAEVKKPGSSVKVSCKASGYTFSRSWMNWVKQAPGQGLEWIGRIYPGNGDIKYNGNFKGKATITADKSTSTAYMELSSLRSEDTAVYYCAHIYYDFYYALDYWGQGTTVTVSSASTKGPSVFPLAPSSKSTSGGTAALGCLVKDYFPEPVTVSWNSGALTSGVHTFPAVLQSSGLYSLSSVVTVPSSSLGTQTYICNVNHKPSNTKVDKKVEPKSC chain 3: not shown | 25.8% | 
FIT1007-12B-2 (bispecific antibody, human IgG1, kappa, L234A L235A, ROR1xCD3 FIT-Ig, same build as FIT1007-12B-1, no linkers) chain 1: not shown chain 2: EVQLVQSGAEVKKPGSSVKVSCKASGYTFSRSWMNWVRQAPGQGLEWIGRIYPGNGDIKYNGNFKGRATITADKSTSTAYMELSSLRSEDTAVYYCAHIYYDFYYALDYWGQGTTVTVSSASTKGPSVFPLAPSSKSTSGGTAALGCLVKDYFPEPVTVSWNSGALTSGVHTFPAVLQSSGLYSLSSVVTVPSSSLGTQTYICNVNHKPSNTKVDKKVEPKSC chain 3: not shown | 7.87% | 
